In data set [1] the test system is HeLa Kyoto. As to the kind of experiment: solubility in G1/S (NP-40 vs SDS abundance) (log2 ratio); higher = more soluble. The following applies: cell cycle stage: G1/S.
The subject of data set [2] is HeLa Kyoto. As to the kind of experiment: melting temperature (median over replicates), in situ; higher = more thermally stable.
Data set [3] concerns HeLa Kyoto. Put plainly: solubility change mitosis vs G1/S (difference of NP-40 vs SDS log2 ratios) (log2 ratio difference); higher = more soluble in mitosis.
Data set [4] concerns HeLa Kyoto. Put plainly: thermal stability score vs G1/S (z-score of summed log2 fold changes over temperatures); higher = more thermally stable than in G1/S.
[5] abbreviates: cell cycle stage: early G1 (4.5 h after nocodazole release).
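Throughout, for melting temperature (median over replicates), in situ: HeLa Kyoto cells synchronized by double thymidine or nocodazole block, proteins quantified by TMT10plex mass spectrometry, three independent biological replicates.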
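Throughout, for solubility change mitosis vs G1/S (difference of NP-40 vs SDS log2 ratios): synchronized HeLa Kyoto cells (double thymidine block for G1/S, nocodazole release for mitosis), protein amounts in NP-40 versus SDS lysates quantified by mass spectrometry, three biological replicates.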
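Throughout, for solubility in G1/S (NP-40 vs SDS abundance): HeLa Kyoto cells arrested at G1/S by double thymidine block, proteins quantified by TMT10plex mass spectrometry in mild NP-40 versus SDS extracts, three biological replicates.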
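Throughout, for thermal stability score vs G1/S (z-score of summed log2 fold changes over temperatures): synchronized HeLa Kyoto cells, proteins quantified by TMT10plex mass spectrometry, three biological replicates, mitosis taken 0.5 h after nocodazole release, G1/S directly after double thymidine block.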

As for “MFSVESLERAELCESLLTWIQTFNVDAPCQTVEDLTNGVVMAQVLQKIDPAYFDENWLNRIKTEVGDNWRLKISNLKKILKGILDYNHEILGQQINDFTLPDVNLIGEHSDAAELGRMLQLILGCAVNCEQKQEYIQAIMMMEESVQHVVMTAIQELMSKESPVSAGNDAYVDLDRQLKKTTEELNEALSAKEEIAQRCHELDMQVAALQEEKSSLLAENQVLMERLNQSDSIEDPNSPAGRRHLQLQTQLEQLQEETFRLEAAKDDYRIRCEELEKEISELRQQNDELTTLADEAQSLKDEIDVLRHSSDKVSKLEGQVESYKKKLEDLGDLRRQVKLLEEKNTMYMQNTVSLEEELRKANAARSQLETYKRQVVELQNRLSEESKKADKLDFEYKRLKEKVDSLQKEKDRLRTERDSLKETIEELRCVQAQEGQLTTQGLMPLGSQESSDSLAAEIVTPEIREKLIRLQHENKMLKLNQEGSDNEKIALLQSLLDDANLRKNELETENRLVNQRLLEVQSQVEELQKSLQDQGSKAEDSVLLKKKLEEHLEKLHEANNELQKKRAIIEDLEPRFNNSSLKIEELQEALRKKEEEMKQMEERYKKYLEKAKSVIRTLDPKQNQGAAPEIQALKNQLQERDRLFHSLEKEYEKTKSQREMEEKYIVSAWYNMGMTLHKKAAEDRLASTGSGQSFLARQRQATSSRRSYPGHVQPATAR [HOOK3]”, the “solubility in G1/S (log2)” value in the data set on HeLa Kyoto [1] was found to be 0.753. Moreover, the results for the melting temperature with HeLa Kyoto [2] (cell cycle stage: G1/S) and with HeLa Kyoto [2] (cell cycle stage: mitosis) were 50.4 °C and 51 °C, respectively. In addition, the “solubility change mitosis (log2)” value in the data set with HeLa Kyoto [3] was -0.00542. The thermal stability score was 0.316 with HeLa Kyoto [4] (setting [5]) and 0.85 in the data set with HeLa Kyoto [4] (cell cycle stage: mitosis).
Consider “MHKHQHCCKCPECYEVTRLAALRRLEPPGYGDWQVPDPYGPGGGNGASAGYGGYSSQTLPSQAGATPTPRTKAKLIPTGRDVGPVPPKPVPGKSTPKLNGSGPSWWPECTCTNRDWYEQVNGSDGMFKYEEIVLERGNSGLGFSIAGGIDNPHVPDDPGIFITKIIPGGAAAMDGRLGVNDCVLRVNEVDVSEVVHSRAVEALKEAGPVVRLVVRRRQPPPETIMEVNLLKGPKGLGFSIAGGIGNQHIPGDNSIYITKIIEGGAAQKDGRLQIGDRLLAVNNTNLQDVRHEEAVASLKNTSDMVYLKVAKPGSLHLNDMYAPPDYASTFTALADNHISHNSSLGYLGAVESKVSYPAPPQVPPTRYSPIPRHMLAEEDFTREPRKIILHKGSTGLGFNIVGGEDGEGIFVSFILAGGPADLSGELRRGDRILSVNGVNLRNATHEQAAAALKRAGQSVTIVAQYRPEEYSRFESKIHDLREQMMNSSMSSGSGSLRTSEKRSLYVRALFDYDRTRDSCLPSQGLSFSYGDILHVINASDDEWWQARLVTPHGESEQIGVIPSKKRVEKKERARLKTVKFHARTGMIESNRDFPGLSDDYYGAKNLKGQEDAILSYEPVTRQEIHYARPVIILGPMKDRVNDDLISEFPHKFGSCVPHTTRPRRDNEVDGQDYHFVVSREQMEKDIQDNKFIEAGQFNDNLYGTSIQSVRAVAERGKHCILDVSGNAIKRLQQAQLYPIAIFIKPKSIEALMEMNRRQTYEQANKIYDKAMKLEQEFGEYFTAIVQGDSLEEIYNKIKQIIEDQSGHYIWVPSPEKL [DLG3]”, for which the “solubility in G1/S (log2)” value in the data set on HeLa Kyoto [1] was determined as 0.141. The melting temperature stood at 52.9 °C in the data set with HeLa Kyoto [2] (cell cycle stage: G1/S) and 53.1 °C with HeLa Kyoto [2] (cell cycle stage: mitosis). The “solubility change mitosis (log2)” value in the data set with HeLa Kyoto [3] was -0.139. In addition, the thermal stability score in the data set on HeLa Kyoto [4] (setting [5]) is -0.454; in the data set with HeLa Kyoto [4] (cell cycle stage: mitosis) it was -1.05.
Consider “MADKQISLPAKLINGGIAGLIGVTCVFPIDLAKTRLQNQQNGQRVYTSMSDCLIKTVRSEGYFGMYRGAAVNLTLVTPEKAIKLAANDFFRHQLSKDGQKLTLLKEMLAGCGAGTCQVIVTTPMEMLKIQLQDAGRIAAQRKILAAQGQLSAQGGAQPSVEAPAAPRPTATQLTRDLLRSRGIAGLYKGLGATLLRDVPFSVVYFPLFANLNQLGRPASEEKSPFYVSFLAGCVAGSAAAVAVNPCDVVKTRLQSLQRGVNEDTYSGILDCARKILRHEGPSAFLKGAYCRALVIAPLFGIAQVVYFLGIAESLLGLLQDPQA [SLC25A22]”, for which the “solubility in G1/S (log2)” value in the data set on HeLa Kyoto [1] stood at 0.299. In addition, the melting temperature came out at 56.1 °C in the data set on HeLa Kyoto [2] (cell cycle stage: G1/S) and 55.4 °C in the data set on HeLa Kyoto [2] (cell cycle stage: mitosis). Also, in the data set with HeLa Kyoto [3], the “solubility change mitosis (log2)” value was -0.111. In addition, the thermal stability score with HeLa Kyoto [4] (setting [5]) was 0.207; in the data set on HeLa Kyoto [4] (cell cycle stage: mitosis), -1.95.
In the case of “MPKKKTGARKKAENRREREKQLRASRSTIDLAKHPCNASMECDKCQRRQKNRAFCYFCNSVQKLPICAQCGKTKCMMKSSDCVIKHAGVYSTGLAMVGAICDFCEAWVCHGRKCLSTHACACPLTDAECVECERGVWDHGGRIFSCSFCHNFLCEDDQFEHQASCQVLEAETFKCVSCNRLGQHSCLRCKACFCDDHTRSKVFKQEKGKQPPCPKCGHETQETKDLSMSTRSLKFGRQTGGEEGDGASGYDAYWKNLSSDKYGDTSYHDEEEDEYEAEDDEEEEDEGRKDSDTESSDLFTNLNLGRTYASGYAHYEEQEN [ZNF330]”, the “solubility in G1/S (log2)” value in the data set with HeLa Kyoto [1] was -0.262. Moreover, the melting temperature worked out at 50.4 °C in the data set on HeLa Kyoto [2] (cell cycle stage: G1/S) and 50.9 °C with HeLa Kyoto [2] (cell cycle stage: mitosis). Besides, in the data set with HeLa Kyoto [3], the “solubility change mitosis (log2)” value was -0.0758. The thermal stability score in the data set on HeLa Kyoto [4] (setting [5]) amounted to 3.84; in the data set on HeLa Kyoto [4] (cell cycle stage: mitosis) it was 0.774.
With “MVWKRLGALVMFPLQMIYLVVKAAVGLVLPAKLRDLSRENVLITGGGRGIGRQLAREFAERGARKIVLWGRTEKCLKETTEEIRQMGTECHYFICDVGNREEVYQTAKAVREKVGDITILVNNAAVVHGKSLMDSDDDALLKSQHINTLGQFWTTKAFLPRMLELQNGHIVCLNSVLALSAIPGAIDYCTSKASAFAFMESLTLGLLDCPGVSATTVLPFHTSTEMFQGMRVRFPNLFPPLKPETVARRTVEAVQLNQALLLLPWTMHALVILKSILPQAALEEIHKFSGTYTCMNTFKGRT [DHRS3]”, the “solubility in G1/S (log2)” value in the data set with HeLa Kyoto [1] was -0.137. In addition, the melting temperature in the data set on HeLa Kyoto [2] (cell cycle stage: G1/S) came out at 54 °C; in the data set with HeLa Kyoto [2] (cell cycle stage: mitosis) it was 53.1 °C. Further, in the data set on HeLa Kyoto [3], the “solubility change mitosis (log2)” value is -0.135. The thermal stability score was 0.157 in the data set with HeLa Kyoto [4] (setting [5]) and -0.582 with HeLa Kyoto [4] (cell cycle stage: mitosis).

Values taken from the supplement of paper PMC5998384.
